{
  "source": "patent US20260250362A1",
  "about": "(published 2026)",
  "binders": {"B1": {"name": "ADI-42898 Fab (Fab, V domains shown)", "VH": "QVQLVESGGGVVQPGRSLRLSCAASGFTFSSYAMHWVRQAPGKGLEWVAVTWFDVSKKDYADSVKGRFTISRDNSKNTLYLQMNSLRAEDTAVYYCARNLIRYSGSYFPVHGMDVWGQGTTVTVSS", "VL": "DIVMTQSPLSLPVTPGEPASISCRSSQSLLHTYGYNSLDWYLQRPGQSPQLLISLGSYRASGVPDRFSGSGSGTDFTLKISRVEAEDVGVYYCMQALHPFTFGGGTKVEIK"}, "B2": {"name": "ADI-42898 (antibody, V domains shown)", "VH": "B1 VH", "VL": "B1 VL"}, "B3": {"name": "IgG (antibody, V domains shown)", "VH": "B1 VH", "VL": "B1 VL"}, "B4": {"name": "ADI-42898 IgG (antibody, V domains shown)", "VH": "B1 VH", "VL": "B1 VL"}},
  "key": {"[1]": {"target": "T1, recombinant ANDV Gn^H/Gc heterodimer (Andes virus (ANDV))", "test": "BLI"}, "[2]": {"target": "PUUV GnH/Gc", "test": "BLI"}, "[3]": {"target": "T1, recombinant ANDV Gn^H/Gc heterodimer", "test": "BLI", "remark": "listed apart in the source"}, "[4]": {"target": "PUUV (Puumala virus (PUUV))", "test": "ELISA"}, "[5]": {"target": "PUUV GnH/Gc", "test": "BLI", "remark": "listed apart in the source"}},
  "note": "Like-named read-outs stand apart in the source and are kept apart here.",
  "data": [
    {"binder": "B1", "values": [
      {"measurement": "Kd", "setting": "[1]", "value": 19600, "unit": "nM"},
      {"measurement": "Kd", "setting": "[2]", "value": 1.9, "unit": "nM"}
    ]},
    {"binder": "B2", "values": [
      {"measurement": "Kd", "setting": "[3]", "value": 2.8, "unit": "nM"}
    ]},
    {"binder": "B3", "values": [
      {"measurement": "EC50", "setting": "[4]", "value": "< 0.1", "unit": "nM"}
    ]},
    {"binder": "B4", "values": [
      {"measurement": "Kd", "setting": "[5]", "value": 1.5, "unit": "nM"}
    ]}
  ]
}
